Patent US20190263882A1
pKd: −log10 of the molar value. Read-outs that look alike come from different tables or passages of the source.

Assays:
[1] = target: RSV F protein (UniProt P03420); experiment: ELISA, 100 ng/well RSV F protein coated, HRP anti-human IgG (Fc specific), QuantaBlu fluorescence (10 min)
[2] = target: T1, relaxin receptor (LGR7); experiment: cell-based or functional assay
T1 sequence (Q9HBX9 whole entry, species assumed, looked up): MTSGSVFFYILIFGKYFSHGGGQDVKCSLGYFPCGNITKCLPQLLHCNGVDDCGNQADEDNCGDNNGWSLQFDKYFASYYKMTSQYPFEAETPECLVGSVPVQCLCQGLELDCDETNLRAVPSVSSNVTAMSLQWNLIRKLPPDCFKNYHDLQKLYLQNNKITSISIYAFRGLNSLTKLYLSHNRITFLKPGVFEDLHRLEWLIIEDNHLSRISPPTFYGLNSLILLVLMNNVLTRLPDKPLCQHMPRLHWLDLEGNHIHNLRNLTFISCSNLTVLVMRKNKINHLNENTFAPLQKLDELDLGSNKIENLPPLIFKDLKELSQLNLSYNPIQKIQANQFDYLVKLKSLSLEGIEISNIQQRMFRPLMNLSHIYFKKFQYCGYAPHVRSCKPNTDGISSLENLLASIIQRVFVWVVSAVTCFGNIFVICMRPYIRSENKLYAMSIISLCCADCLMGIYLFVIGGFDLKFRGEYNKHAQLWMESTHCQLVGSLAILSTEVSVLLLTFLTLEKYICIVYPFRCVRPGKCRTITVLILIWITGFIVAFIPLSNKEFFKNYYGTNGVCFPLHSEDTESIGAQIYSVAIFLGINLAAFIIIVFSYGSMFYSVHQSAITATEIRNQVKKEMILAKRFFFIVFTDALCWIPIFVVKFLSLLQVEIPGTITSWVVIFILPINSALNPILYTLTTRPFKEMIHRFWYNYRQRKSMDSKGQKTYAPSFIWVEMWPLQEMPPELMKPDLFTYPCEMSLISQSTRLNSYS

[3] = target: T2, hLGR7 (UL-hLGR7-Cre-Luc reporter cell line) (human ('hLGR7')) (UniProt Q9HBX9); experiment: cell-based or functional assay
T2 sequence (looked up): T1 sequence (Q9HBX9 whole entry, species assumed, looked up)

[4] = target: T1, relaxin receptor (LGR7); experiment: cell-based or functional assay; remark: listed apart in the source

Chain of RSV F protein (P03420 26-524): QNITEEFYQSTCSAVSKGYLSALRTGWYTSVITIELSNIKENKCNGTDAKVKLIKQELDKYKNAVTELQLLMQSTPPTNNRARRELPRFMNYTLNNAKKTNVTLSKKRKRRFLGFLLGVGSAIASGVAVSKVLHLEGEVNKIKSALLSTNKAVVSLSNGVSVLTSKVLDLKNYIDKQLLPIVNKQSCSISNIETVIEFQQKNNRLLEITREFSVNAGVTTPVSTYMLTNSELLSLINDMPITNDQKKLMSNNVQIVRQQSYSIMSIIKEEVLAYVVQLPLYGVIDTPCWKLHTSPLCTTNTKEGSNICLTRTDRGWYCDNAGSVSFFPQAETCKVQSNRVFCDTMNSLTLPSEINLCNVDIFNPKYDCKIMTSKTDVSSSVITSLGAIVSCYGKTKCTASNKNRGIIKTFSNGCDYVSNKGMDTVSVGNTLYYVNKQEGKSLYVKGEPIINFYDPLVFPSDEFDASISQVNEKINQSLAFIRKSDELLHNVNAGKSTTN

| EC50, CRE-luciferase reporter assay [2] | EC50, UL-hLGR7-Cre-Luc reporter cell line [3] | SA [3] | EC50, CRE-luciferase reporter assay [4] | Substance | pKd [1] |
| --- | --- | --- | --- | --- | --- |
|  |  |  |  | Herceptin (antibody) | 5.87 |
| 0.022 nM | 0.02 nM | 1000 units/µg | 0.0223 nM | relaxin-2 peptide (from UniProt P04090 25-185) (ligand) |  |
